From patent US20240182897

System: T1, pegylated peptide-linked C12-miR (P.5-L-C12-miR)
T1 sequence: KGDGG

Substance: lysosomal enzyme Cathepsin D (Cat. No. C8696, Sigma-Aldrich)
- enzyme cleavage in vitro, size reduction on 15% acrylamide/8 M urea gel: the pegylated peptide-linked C12-miR (P.5-L-C12-miR) was cleaved by lysosomal cathepsin D and resulted in a smaller fragment
